Experimental data as given in the NTF2 design screens of Basanta et al. (2020).

Test: protease stability score; higher = more stable; yeast display proteolysis, trypsin and chymotrypsin;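 further: relative to predicted unfolded state with 0 unfolded-like and 1 meaning tenfold more protease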

Sequence	protease stability score
DEREKRLKDIALIVMHLLLTGDEERFHELFDPDTKMTLIFNGQIETSHGMEEVRELLRYWLEEIRIEHYHLTEIHLIGDKTHVHGELVGEVNGKRFKTHIHITIVVIDGKVHSVEFELR	1.77
DEREKRWRKLHQDILEAIWTGDEETFLRLADPDMRFYLIVNGRTVDLHGMELASVVLHERRKRFKNATWHLKSERVQGNYSELNEELIVGDKTYDIRINLVHIDGKLHSVVIEDI	1.01
DEREQEAHRAIEKFMHYVRTGNEDKLKEFLDPNALNLFDGRHDVGREDVTESMIEIMRHLGVTLHDVKITDMRTQGDYLTVNGWFNLEYDGVRDNHKVFIHSRKVDGKWIITKIDWR	1.26
DERERDAEDALDELREIWRTGDWELIHQMLDPEVRLDINGVRLVGREHWVDEVRRLFHKVPGMTYHLKDVHFQGNKMHVDILSRYDGRESKVDLILLKINGKWLNKEVRIREE	0.807
DERERDARIYFHLLLHVIMTGNEEDLERFMDPHARIQIGDKMVHGRENVYHELLRIAREMRLHHSHIHEIRVIDGRVILKGHLDLEVGDKRELVDVEWIVIKVNGKWIFHSVHFR	2.53
DERERDARKAVKDFIESIRTGDEDEIEKLLDPHVRVDAPNHERHGREEVVEELREMRIEIRDVRFRHIHVQGNKIEVHVRVHGSLMINGREYRIDTTMIIIMEKIDGRWILTHIEEK	1.62
DERERDIREWMRIYIEMWETGDEDKLLTMIDPHYREETENEDIHGREQAHKKIKDIKERADHLHIRVHDVDIIDGVAVLDVEILIIIGDKVIRVRTTIIMRKINGKWFIERVHIK	0.235
DERERELKQALDLFKDIIKTGDEEALTRLIDPNAKMRVNGQDIHGWHHFILMMIRIYLHMGIKHIIDHRLHIQGDYLHLDTEVHVDGRSIRYHIVLFKFDGRWHLESSSSI	1.6
DERERIAEEILRRIAKLMETGDENEMEHLMDPNVRLVFNGVRLHGMEDWEREMRRFDHIKIHTNEIQHIRLQGEKVDNDVRVDLLYHQGDKSWKIDTRTHYHFQKVNGKWIVREIIIE	1.39
DERERLLLEWARKFMENLITGNEELLKEMHDPHYRSHIGDKDLVGREVHHEFWEKHFRHWRIEKFDVRDYHTQGDKARLVVRIVIDVDGRRIDTEIHIHYDIIDGQLRLVTLQYE	1.5
DERESFIKEVMEQFNRDLLTGDEEHFKERADPDVKIIFDGRETHGWKVLHHLLREIRIRHMHIDDYDIQGDKARVHSTADVEYGDKEDELKIEIRLVVINGRLKEVSIIFR	1.16
DERESLLEKLLRLWIELLKTGDEDTMLKLADPDAKYHVNGKDFHGWELASRIWFEERERLGIKHVHDHEIRFQGEKTELHGILLFDGVDVKFRIIIIVFNGRLHHVIVERD	1.53
DERFELFDWVVRLILHAHHTGDERIIHELADPNVRYIINGVTVHGRELMYRLAHEHLREIWVHHVQVRHFDVVGDFFRVEMEVVGLVNGVHYNEHRRLHLYVVNGRLKSSRIEIE	1.03
DERHDDRNHAIEAFKFMLDTGDWRVYSRNIDPNMRLEIGDKTFHGREELEHHITQIDHHHTHTLTIEHIDRVGDFVDIHITLSVTVIFDGRNETKTFHVDIHLVKIDGKWLIHKESVK	0.545
DERHDDSRDLAHIFLHLLHTGDEDTIQEYLDPNAKYTLNINGVRVIMHGRETITRHWKEWLDKFKNATIHINDSTVQGDKVHNHTSMEINGQTHNTWIVVVVFNGKVRMIIVDVI	1.29
DERHEDIKKFMELVLRLAKTGDEDHFSNMVDPHARLEIGDKHYIGRELVSTLFHEIRLHDMKIHNIISYGDKVKADVRLDIEFDGRRWNINTLLIIHKVNGQWLLESERRH	1.14
DERHEHAKEYLEMWLHSIFTGDERTLMELVDPNAKHLVNGRERHGRDELSRILIHIRMHVRDSKLRDMRVVGDKAIIHTEVDEELHFNGRTVRMIVEVEIYLFKVNGKWVFTEIRII	1.29
DERHEHTHELMRLLIEAFVTGDERLSEELADPHTRLHVNGVHNWGRERFVEVVRRLWSQVKNAKWTLRDFHVQGDKNEVVGDVHVDGQTIHVRFIFFVFNGRLESEEIRVH	2.4
DERHEHVREMSHRMEEWFETGDEDKWVKNADPNVITDINGQKLHGRENAARFLLHYHNRFKGMRFDIEDVDIQGEKVHIHSVQHFDGVKFDVRLIFEVFDGVIKSMHVEVK	0.706
DERHEKAERVTRELIKLLITGDEDLLDDLIDPNARIEIGDKVTHGRDKFSREISEMGVDHVELKEIHVYGDKAIIKGKLDINGKRNKFILIMEKINGRWFLRSMRVEDH	1.32
DERHELTRRVAVLWLHIFMTGDEDLFEKLADPTTRQEVLFNGRIYSLVGREEVSRWLREMVHELRFRHIEDKDKEIQGDKVLIDGILHIEAENHSTTIRSRIVLIVVNGKIHTIKFEFH	1.55
DERHETEERFLRTLIHSHMTGDEESHFEMMDPHAKLIYNGKEIHGMEVLRKELEEWRKKLGANHSHITIDHVELQGNKAHFDVTIDLIVDGRVIRTRIHIDIEKVDGRWIITRVIVK	0.489
DERHHRVKHWVHRFVHAWITGDERELRELLDPNVRLNFEFDGRREENVGRRDVDRFIHEILEKYKNVTIIFRDFEIVGDKFHLHTELIIGDKKHRIHIEINVINGQHEWIKIHIE	1.66
DERHKHDIEVAKEFLEVERTGDEHLLRRLADPHVLSNINGVHNHGRETVIEFWREWFEEWRVTEIKIRHLDAYDGRVRIEGRMRVIYDGREHTIDSEFRLVVVNGRLKSMELILH	-0.043
DERHKMIKDFAHLMLRARKTGDWDVMTRLFDPNTRVTQGDFELHGMESFSDWLHELHRQVPNVVEHDHSVDAFDGRVHLKTEERINGRILRIRIIIIVVDGKIKELRIEVD	1.37

Sequence	protease stability score
DERHNKQWNKELIKIWTDGDHKKFSEMLDKDVQIQVGDKEYHGREEIVRQYKTLMDRADHFEVKRYEVKGNDITIIFTFQVNGRRDQVRVVFVIENGHVKKITMDKK	1.97
DERHQDLREVLTRLMHLLLTGDWDEFHRLADPSTQLEVGDFHFHGWEMVVEFLKRFYFHIRLRRFHIEHVRVINGRIDSDTRVESEVNGVRDVERTHVHLNKVDGRWVIKRMHME	0.966
DERHRYMKLFLDIFLHLYQTGDWDKLEHLADPHVKLIFENHELHGRDSFFRFILEWLRHMGVNHVEFHNIHYDLVGDKVHLEVRLIVFINGRIHHVIIHIIAEKIDGKWHLRSHEIRHE	1.34
DERKEDLDRALEEFLRSVETGDEELNERLADPNVKLVIDGVKYHGMEFIVKQLDEWRIHDMRIRRIRNVGEKVYVDLSVDGNFNGRRYRTEVKIVFTKINGRWLLETHIVD	1.87
DERKEHSIKVAKNIFNDILTGDEDRMKEMMDPDVKLHIGDKDVIGRENVIKFMIEEWNHIRFEDFKHKDVRVQGDKAILEGHINVEYGDKHRNVDSRYLVFVIDGRIKSIEIRLH	1.39
DERKEMTRHFTEEWIRLWETGDFEHMHDLFDPHARIIIDGQDHHGMEHVNERWRRIKNIRLEIKDFKVYGDKIFIDLKVTVNGREEKVEIIVVVVDGKFKMIEFRFV	2.11
DERKEYVEILVRILIELFLTGDWEHMLRLADPNMRFRIGDKETHGMEEAYKLMEELKEEIRIHEVRLTHIRVYGDFADTETRVHVEVGDKIVDYDMRLHLVVVNGQLRHITIEIE	0.731
DERKHFFDIALEILKKTIKTGDEREHNENVDPRVKNDINGVELHGMETVSEFHLRLWEEMRVEEIHIRDLDIQGNKAVFHTSLRRRYNGRELEIELHYIVVKVNGRWFIQEIIIR	1.57
DERKKATKETMRLEEEARNTGDEHELTKLVDPHVRLVIDGVNFIGWEVFLKRFNDLGADHVELRIDEIELIGDKVIVHGTLRIRVGDKETQEKVELYWLKINGRWVLEQVNHK	1.71
DERKKDAERMVEWIMHLWETGNFERLFRLADPHVRFILHQGDKELHFHGRELVEEAIFRLLLHIRIDDRIDRRVHIFPNRLDIHGQVHVHVGDKRHDLIIHIEVFIIDGKLKRIEIEIE	1.49
DERKTISHMIEEIWHRIIRTGDEEAFIKYFDPHARIHVDGKEIHGREKVLEFLIEIFRHLRVEDYTVHSYNTQGDKIHIDTRMDGEVDGRREVNQTRIIATKINGQWILTEVHLS	0.36
DERLEIARRVVELSIRMLHTGNEEVVRHLLDPNYRLHINGVHLIGMEEFSKWLKELRFDLEHVQMHHITDINGRLFVIGEIIGRLHYDGVTVREERESIWFIEKVDGKWIIKEVELR	1.18
DERMEVIEELLKKISHALYTGNEKLLEQMADPNVRLEIGDKEFVGWEQLLELIREIRLSITDIDIRDERLIGNKIHLRGESRTIHVIGDKTWEERRDVHFVILKIDGKWVMHEIEYR	1.95
DERNDRAREYVELWEDALRTGDEHILMELADPHTRIEIGEFEIIGREEIMRFMNEIRVHVRESRIKRVTEIDGVLFADIHVRREFRFDGRSKEVRTDVIIIFNKFDGKWLLESVHVK	-0.01
DERQEEARKMFEDVYKAVWTGDEEELLRLMDPNVRIDIDGKILHGREALSEEWKRVDHVHHEHHEDMKVIGNKLHVRGHIEVDIDGRNLRYTIDNYLVVVNGRIKEVKEREV	0.664
DERQHEARKVFLEWIRREVTGDFERVRHLADPNMRMDINGVEHHGRDRMSELIFRQLEEMRIEIHIRHYHVIGEKVHANIEMRVRQGDWDETRTIEIIFVVIDGRLHDYTVHIL	0.643
DERQHHAENFHELFFRWVETGDWENQRELADPNMRVDLVVNGVELHDHGMDSFTKRLHELRLHHLDIRSVHYVNGRIDSDIRVDGVIDGRRIDTHMRLHLRVINGKMREIRIQID	1.33
DERQKELQEFAERLMRVLNTGDWEHTEQLLDPHVRVHFNGRDFHGWEEIVRFWTELRNQFDHFELRVDTVRIQGDKVENDGNAIFRIDGKELRHRITIHVFLINGKIKRVNVEIR	1.68
DERREIMEEWARDVIEWLETGDFEAIERNLDPNVRHDFNGKEFHGREQVIKSFHDILKRIKNIRIETRHIEVVDGVTHWDGDVNVNGVRTHVDINIEVINGVFHDFYIKFK	1.19
DERREQTRHWINMFTHAMRTGDEHTFKELLDPHVRVKDEHEEDHGRDKAVELFSRVDVFHDIKLRDIDVQGNYVTIEVELLGEIDGKRTTHDLHIITYKINGRWILKSVSIR	1.06
DERRKLEEDILELMLRVFETGDFDTFIKFADPNTRSDVNGRQYHGREWLAEMWKITLEELGADHFELTSYDVFNGRVHLRIRVHVGDKQRSMTIEIQVINGKVQSIRIDIE	1.4
DERSEEVRRLIKNLVDFFHTGDWRLIQDLADPNVRTDVNGVEHHGREEVTKMLEELVRRFRNVRLHIRDHHIQGEWVIVILEFHVGDKSFELHMFALKINGRWTLTSIEVR	2.37
DERSHVLEEVLKKTSRANETGNEEIIEENLDPNTRFDWNGVIIHGREQWLELVKHMRISIHHFDTRDIREFNGRADVRGDMDSVIEVDGRRLRLDTHVIYHATKVDGRWVITEIRIH	0.41
DERSRNLEHYAKDLVEDWLTGDFRRYSKLADPNALTIFNGVELHGRELVIRMMNELRHRIDHLEIRIEDSHIQGNKVKIDSHRIMNVNGVEYRTKTEEWFDIVDGRVKSVEIRVH	0.426
DERTEEVKRITEEFREAERTGDWERLLELIDPDVRIEIIINGRRETYHGREDAKRVLEEWYKQFKNITLKLREMRIQGDKTDLEVEVNVNGRRHDIRVHLHIVNGRIKEIRIEVI	1.63
